Measured values taken from paper PMC9816786 (Molecular Metabolism, 2022).
One block for each binder: values may come before it.

Experiments:
[1] = molecular target: T1, Human CAP1 (cyclase associated protein 1), 6xHis-tagged, purified (human, UniProt Q01518 1-475, biotinylated where it was immobilised for BLI (site not told)); assay: BLI; biotinylated PCSK9 or biotinylated CHRD immobilised (0.2 μg/ml), CAP1 in solution, pH 7.5, association and dissociation 600 s; settings: both partners purified
T1 construct: human adenylyl cyclase-associated protein 1 (CAP1), cDNA cloned into pCMV; also called adenylyl cyclase-associated protein 1; biotinylated CAP1; source: FreeStyle293 FS cells, transfected, purified (NiNTA, size-exclusion chromatography)

[2] = molecular target: T2, Human PCSK9 (full length), 6xHis-tagged, purified (human, UniProt Q8NBP7, biotinylated where it was immobilised for BLI (site not told)); assay: BLI; biotinylated P1.40 immobilised (0.25 μg/μL), PCSK9 or CHRD in solution, pH 7.5, 1:1 binding model; association 3600 s (PCSK9) or 1800 s (CHRD), dissociation 3600 s; settings: both partners purified
T2 construct: human PCSK9, full length cDNA in pIRES2-EGFP; also called full-length PCSK9; proprotein convertase substilisin kexin 9; source: FreeStyle293 FS cells, transfected, purified (NiNTA, size-exclusion chromatography)

[3] = molecular target: T3, CHRD (aa 449–693) of human PCSK9, 6xHis-tagged (human, UniProt Q8NBP7, biotinylated where it was immobilised for BLI (site not told)); assay: as above; settings: both partners purified
T3 construct: human PCSK9, C-terminal Cys/His-rich domain, aa 449-693 as printed (modules M1 453-529, M2 530-603, M3 604-692); also called C-terminal Cys/His-rich domain; CHRD alone; source: FreeStyle293 FS cells, transfected, purified (NiNTA, size-exclusion chromatography)

[4] = molecular target: T2, Human PCSK9 (full length), …; assay: SEC + other: SAXS; size exclusion chromatography followed by small angle X-ray scattering of PCSK9 alone or in complex with P1.40, in solution; settings: both partners purified
[5] = molecular target: T4, CHRD F456A mutant (Homo sapiens (Human)., UniProt Q8NBP7, F456A); assay: flow cytometry on cells; P1.40 or its mutants expressed on yeast cells (HA-tagged), 6xHis-tagged CHRD or its mutants in solution; cell binding assays and FACS sorting for deep mutational scanning; settings: one partner purified
T4 construct: human PCSK9 CHRD, aa 449-693 as printed for the parent construct; source: HEK293 cells

[6] = molecular target: T5, CHRD D480A mutant (Homo sapiens (Human)., UniProt Q8NBP7, D480A); assay: as above; settings: one partner purified
T5 construct: human PCSK9 CHRD, aa 449-693 as printed for the parent construct; source: HEK293 cells

[7] = molecular target: T6, CHRD R476A mutant (Homo sapiens (Human)., UniProt Q8NBP7, R476A); assay: as above; settings: one partner purified
T6 construct: human PCSK9 CHRD, aa 449-693 as printed for the parent construct; source: HEK293 cells

T1 sequence (Q01518 whole entry): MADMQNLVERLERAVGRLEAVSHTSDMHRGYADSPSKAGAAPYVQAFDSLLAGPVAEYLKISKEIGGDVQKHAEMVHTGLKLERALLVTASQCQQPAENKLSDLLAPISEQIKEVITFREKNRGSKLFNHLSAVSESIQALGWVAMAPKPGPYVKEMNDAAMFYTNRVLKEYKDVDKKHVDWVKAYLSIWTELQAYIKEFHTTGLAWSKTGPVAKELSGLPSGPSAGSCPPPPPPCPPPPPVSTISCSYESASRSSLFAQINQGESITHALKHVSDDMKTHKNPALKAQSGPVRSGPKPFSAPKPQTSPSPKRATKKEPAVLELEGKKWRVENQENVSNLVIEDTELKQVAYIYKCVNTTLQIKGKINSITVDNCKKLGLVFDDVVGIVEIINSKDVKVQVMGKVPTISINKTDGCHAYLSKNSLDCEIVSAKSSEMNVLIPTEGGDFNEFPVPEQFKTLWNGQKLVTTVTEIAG

Kd [1]: 1260 nM
koff [1]: 0.0007 s⁻¹
kon [1]: 560 M⁻¹ s⁻¹
B1: CHRD (aa 449–693) of human PCSK9, 6xHis-tagged (domain or fragment, UniProt Q8NBP7 449-692, looked up)
chain: HGAGWQLFCRTVWSAHSGPTRMATAVARCAPDEELLSCSSFSRSGKRRGERMEAQGGKLVCRAHNAFGGEGVYAIARCCLLPQANCSVHTAPPAEASMGTRVHCHQQGHVLTGCSSHWEVEDLGTHKPPVLRPRGQPNQCVGHREASIHASCCHAPGLECKVKEHGIPAPQEQVTVACEEGWTLTGCSALPGTSHVLGAYAVDNTCVVRSRDVSTTGSTSEGAVTAVAICCRSRHLAQASQELQ
modifications: biotinylated where it was immobilised for BLI (site not told)
notes: human PCSK9, C-terminal Cys/His-rich domain, aa 449-693 as printed (modules M1 453-529, M2 530-603, M3 604-692); also called C-terminal Cys/His-rich domain; CHRD alone; source: FreeStyle293 FS cells, transfected, purified (NiNTA, size-exclusion chromatography)

Kd [2]: 5.6 nM
koff [2]: 9e-06 s⁻¹
kon [2]: 1600 M⁻¹ s⁻¹
Kd [3]: 0.0903 nM
koff [3]: 3.5e-05 s⁻¹
kon [3]: 380000 M⁻¹ s⁻¹
stoichiometry N [4]: 1
B2: P1.40, CHRD-specific single domain antibody (nanobody), purified from E. coli (VHH)
VHH: QVKLEESGGGLVQAGGSLRLSCSPSDRTFSAYAMGWFRQVPGREREFVATIRDSDASIYYTDSVKGRFTISRDNAKNTVYLQMNSLIPDDTAVYYCAARQYYSGRVYSTFREEYDYWGQGTQVTVSS
notes: TEV site ENLYFQ/G: a glycine may be left at the N-terminus after cleavage; also called nanobody P1.40; biotinylated P1.40; source: E. coli BL21 (DE3) pLysS, purified (HisTrap, TEV cleavage, size-exclusion chromatography); not shown: DsbC, N-terminal, cleaved; His6, N-terminal, cleaved

fold decrease of affinity against wild-type CHRD [5]: 12 fold
fold decrease of affinity against wild-type CHRD [6]: 142 fold
fold decrease of affinity against wild-type CHRD [7]: 17 fold
B3: P1.40 expressed on yeast cells (cell surface, HA-tagged) (VHH)
VHH: QVKLEESGGGLVQAGGSLRLSCSPSDRTFSAYAMGWFRQVPGREREFVATIRDSDASIYYTDSVKGRFTISRDNAKNTVYLQMNSLIPDDTAVYYCAARQYYSGRVYSTFREEYDYWGQGTQVTVSS
